Measurements from publication PMC2770460, “Karyopherin binding interactions and nuclear import mechanism of nuclear pore complex protein Tpr” (BMC Cell Biology, 2009).

Target: His-importin α (human, UniProt P52292 1-529)
Test: ELISA; solid phase binding assay: Maxisorp microtiter plates coated with 25 ng of Tpr or C-Tpr; increasing concentrations of the soluble protein; bound protein detected with primary antibodies and horseradish peroxidase-conjugated secondary antibodies (TMB); apparent Kd from B = Bmax x Y/(Kd + Y); CRM1, NES and RanGTP at equimolar concentrations
Settings: both partners purified

B1: C-terminal domain of Tpr (C-Tpr, residues 1626-2348) (domain or fragment)
chain: EQRDEPQEPSNKVPEQQRQITLKTTPASGERGIASTSDPPTANIKPTPVVSTPSKVTAAAMAGNKSTPRASIRPMVTPATVTNPTTTPTATVMPTTQVESQEAMQSEGPVEHVPVFGSTSGSVRSTSPNVQPSISQPILTVQQQTQATAFVQPTQQSHPQIEPANQELSSNIVEVVQSSPVERPSTSTAVFGTVSATPSSSLPKRTREEEEDSTIEASDQVSDDTVEMPLPKKLKSVTPVGTEEEVMAEESTDGEVETQVYNQDSQDSIGEGVTQGDYTPMEDSEETSQSLQIDLGPLQSDQQTTTSSQDGQGKGDDVIVIDSDDEEEDDDENDGEHEDYEEDEEDDDDDEDDTGMGDEGEDSNEGTGSADGNDGYEADDAEGGDGTDPGTETEESMGGGEGNHRAADSQNSGEGNTGAAESSFSQEVSREQQPSSASERQAPRAPQSPRRPPHPLPPRLTIHAPPQELGPPVQRIQMTRRQSVGRGLQLTPGIGGMQQHFFDDEDRTVPSTPTLVVPHRTDGFAEAIHSPQVAGVPRFRFGPPEDMPQTSSSHSDLGQLASQGGLGMYETPLFLAHEEESGGRSVPTTPLQVAAPVTVFTESTTSDASEHASQSVPMVTTSTGTLSTTNETATGDDGDEVFVEAESEGISSEAGLEIDSQQEEEPVQASDESDLPSTSQDPPSSSSVDTSSSQPKPFRRVRLQTTLRQGVRGRQFNRQRGVS
B1 gave a Kd of 21.5 nM.
